Test results from patent publication WO2012175740A1 (dated 2012).
Substitutions are numbered along the chain they refer to.

T1: cyno IgE c(epsilon)2-c(epsilon)3-c(epsilon)4 Fc fragment with C-terminal (His)10 tag (cynomolgus monkey)
T1 construct: Made in HEK-EBNA cells with the murine Ig kappa leader; Biotinylated in the Alphascreen; also called cyno IgE Fc; cyno IgE-Fc
T1 chain: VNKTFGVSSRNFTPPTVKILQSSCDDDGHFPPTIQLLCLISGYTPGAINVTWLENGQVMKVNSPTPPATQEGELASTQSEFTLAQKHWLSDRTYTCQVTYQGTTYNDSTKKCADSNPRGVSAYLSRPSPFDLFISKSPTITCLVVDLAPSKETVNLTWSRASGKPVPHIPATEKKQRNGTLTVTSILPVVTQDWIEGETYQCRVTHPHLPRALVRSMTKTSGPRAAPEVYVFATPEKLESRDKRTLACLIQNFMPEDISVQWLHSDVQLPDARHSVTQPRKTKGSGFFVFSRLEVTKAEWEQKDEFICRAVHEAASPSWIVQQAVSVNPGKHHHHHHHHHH

B1: Nanobody 39B2 (VHH)
VHH: EVQLVESGGGLVQPGGSLRLSCAASGFTFGSYDMSWVRQAPGKGPEWVSAINSGGGSTYYADSVKGRFTISRDNAKNTLYLQMNSLKPEDTAVYYCSTDLGPWIEGTMEEYEYEYWGQGTQVTVSS
notes: also called 39B02; not shown: C-terminal c-myc tag and His6 tag
B2: Nanobody 39D11 (VHH)
VHH: EVQLVESGGGLVQPGGSLRLSCAASGFTFGSYDMSWVRQAPGKGPEWVSSIDTGGDITHYADSVKGRFTISRDNANNMLYLQMNSLKPEDTAVYWCATDEDYALGPNEYDYYGQGTQVTVSS
notes: not shown: C-terminal c-myc tag and His6 tag
B3: Nanobody 36G5 (VHH)
VHH: EVQLVESGGGLVQPGGSLRLSCVASGFTFGSYDMSWVRQAPGKRPEWVSAINSGGGSTYYADSVKGRFTISRDNAKNTLYLQMNSLKPEDTAVYYCATDEDYALGPNEYDYYGQGTQVTVSS
notes: as for B2
B4: Nanobody 39D8 (VHH)
VHH: B2 VHH with E89G
notes: also called 39D08; not shown: C-terminal c-myc tag and His6 tag
B5: Nanobody 42D7 (VHH)
VHH: B2 VHH with S17P
notes: as for B2
B6: Nanobody 42G5 (VHH)
VHH: B2 VHH with Q13R, S31N, S63P, N76A, M78T, W95Y
notes: as for B2

molecular target: T2, human IgE (Diatec, Oslo, Norway) (human, UniProt P01854-1 1-428); assay: cell-based or functional assay
T2 sequence (P01854 other isoform, or with tags, fused parts or gaps): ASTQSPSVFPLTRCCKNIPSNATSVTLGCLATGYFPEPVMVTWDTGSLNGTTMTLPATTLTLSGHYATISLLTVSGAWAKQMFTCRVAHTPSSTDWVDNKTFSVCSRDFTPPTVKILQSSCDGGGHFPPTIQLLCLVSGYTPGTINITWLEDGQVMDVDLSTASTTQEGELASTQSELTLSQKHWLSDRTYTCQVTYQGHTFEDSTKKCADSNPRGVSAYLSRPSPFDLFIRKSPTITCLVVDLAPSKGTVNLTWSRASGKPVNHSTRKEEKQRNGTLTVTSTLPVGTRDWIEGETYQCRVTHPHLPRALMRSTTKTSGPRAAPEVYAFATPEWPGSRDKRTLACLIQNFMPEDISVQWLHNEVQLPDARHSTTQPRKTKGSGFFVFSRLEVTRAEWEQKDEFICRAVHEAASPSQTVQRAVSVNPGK

First: B1
Second: B2
The “block of degranulation at 500 nM Nanobody” value of the first is lower: 25% for the first, greater than 95% for the second.

B3 and B4 cannot be ordered by “block of degranulation at 500 nM Nanobody” value: greater than 95% for the first, greater than 95% for the second.

Molecular target: T1, cyno IgE …
Assay: Alphascreen, competition with HuFc(epsilon)RI(alpha)Fc for cyno IgE Fc

Going from B2 to B3, the “% inhibition at 250 nM Nanobody” value falls from 93.5% to 88.1%.

Compared with B5, B4 is higher in “% inhibition at 250 nM Nanobody” value: 92.7% for the first, 93.6% for the second.

For B6, the “% inhibition at 250 nM Nanobody” value was 91.2%.

First: B2
Second: B3
The IC50 of the first is 4.9-fold lower: 0.119 nM for the first, 0.584 nM for the second. The first is the more potent here.

Going from B5 to B4, the IC50 falls from 0.127 nM to 0.0742 nM (1.7-fold).

In the case of B6, the IC50 is reported as 0.96 nM.

molecular target: T2, human IgE (Diatec, Oslo, Norway); assay: ELISA, competition with coated Fc(epsilon)RII for HuIgE

In the case of B1, the “fold less potent (against 39D11, 36G5 and Reference Fab)” value is reported as 10 fold.

molecular target: T2, human IgE (Diatec, Oslo, Norway); assay: ELISA, competition with coated Fc(epsilon)RI for HuIgE

Compared with B1, B2 is higher in “% inhibition by 500 nM Nanobody” value: 69.3% for the first, 99.5% for the second.

Going from B3 to B5, the “% inhibition by 500 nM Nanobody” value rises from 98.6% to 99.6%.

Compared with B4, B6 is lower in “% inhibition by 500 nM Nanobody” value: 99.4% for the first, 98.1% for the second.

First: B1
Second: B2
The IC50 of the first is 77-fold higher: 39.4 nM for the first, 0.511 nM for the second. The second is the more potent here.

Going from B3 to B5, the IC50 falls from 2.96 nM to 0.959 nM (3.1-fold).

Going from B4 to B6, the IC50 rises from 0.55 nM to 8.38 nM (15-fold). The first is the more potent here.
